Experimental data reported in the supplement of paper PMC9170038.

Test system: K4 kissing-loop RNA reporter
Experiment: apparent KD of K4 kissing-loop reporter; higher = weaker reporter binding
Conditions: Eterna round: R107
Method: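 RNA-MaP round R107: designed RNA switches with theophylline, tryptophan, arginine or FMN aptamers are transcribed on-chip within common flanks. They are titrated with a labelled K4 kissing-loop RNA reporter in RNA-MaP buffer (100 mM Tris pH 7.5, 80 mM KCl, 4 mM MgCl2), without ligand or with the indicated ligand. Median apparent KD per design.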

[1] = input ligand: theophylline 20 uM
[2] = input ligand: tryptophan 2.4 mM
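Also: bound reporter read as fluorescence of individual clusters on recovered sequencing chips by microscopy, with normalized cluster intensities fitted with a binding model.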

Row | Sequence | apparent KD of K4 kissing-loop reporter (input ligand: FMN 200 uM) | apparent KD of K4 kissing-loop reporter (input ligand: arginine 13.2 mM) | apparent KD of K4 kissing-loop reporter (input ligand: none) | apparent KD of K4 kissing-loop reporter [1] | apparent KD of K4 kissing-loop reporter [2]
1 | AAAUUCUUUUUUUUAUUUAACUUUUCAGAAGGAGCGUGGUAGUACACAGGUAGGUCGCUGAAUAUAAGACUAGUGAUGUUAGUUA [JR_SSArginiA_Sub009] | 172 nM | 190 nM | 235 nM | 215 nM | 165 nM
2 | AAAUUUAAUAUAUUUAAUUAAUUAAGUGAUACCAGACAUUAAUAAGUCCCUUGGCAGCGCAAUGCAGUGAUGUUGCUUAUAAUAA [#18 K4 Theophylline A Same State] | 56.1 nM | 82.9 nM | 50.1 nM | 136 nM | 48 nM
3 | AAAUUUAAUAUAUUUAAUUAAUUAUGUGAUACCAGACAUUAAUAAGUCCCUUGGCAGCACAAUGCAGUGAUGUUGCUUAUAAUAA [JR_SSTheophyA_Sub010] | 85.7 nM | 117 nM | 86.9 nM | 138 nM | 70.3 nM
4 | AACCACUCGUUACAUCACUAUCGAGUGGAACGAGGACCGGUACGGCCGCCACUCGAAUAGAUGCAGUGAUGUUGCAUCUUGGAAU [KL-SSTryp-A (BrourdMod)4 #dotplot2 strengthened] | 181 nM | 141 nM | 163 nM | 156 nM | 132 nM
5 | AACCACUCGUUACAUCACUAUCGAGUGGAACGAGGACCGGUACGGCCGCCACUCGAUAACUUGCAGUGAUGUUGCAAGUAAGAAU [(T)''-(K)'-(T)'-(T1)-(T2)-(K1)-(K2)_Design9] | 542 nM | 343 nM | 472 nM | 381 nM | 289 nM
6 | AACCACUCGUUACAUCACUAUCGAGUGGAACGAGGACCGGUACGGCCGCCACUCGGUAUCUUGCAGUGAUGUUGCAAGAAAGAAU [KL-SSTryp-A #dotplot2 strengthened] | 212 nM | 199 nM | 256 nM | 164 nM | 163 nM
7 | AACUCUCACUGGAGUGAUGUUCUGGAAAACCGAGGACCGGUACGGCCGCCACUCGGAAAUGAGAGAGUCCUACGAAAAGUAGGAC [Omei inspired 1] | 191 nM | 213 nM | 217 nM | 255 nM | 139 nM
8 | AACUGUCAAGGACAACAUUACUGAGGUGAUACCAGCAUCGAAAGAUGCCCUUGGCAGCGCCAACUUGCAGUGAUGUUGCAAGUAA [BrourdMod 1 - Jieux - Exclusion - Theophylline A] | 169 nM | 141 nM | 157 nM | 159 nM | 164 nM
9 | AACUUAAUUUAUAAGCAGUGAUGUUGCUCACGAGGACCGGUACGGCCGCCACUCGAUCGGACUUAGGUCUUCAAUUAUUUCUUAA [JR_ExcTryptoA_Sub018] | 114 nM | 157 nM | 137 nM | 140 nM | 121 nM
10 | AAGAAGAAUGGAAGGAGCGAGCAGAUAUAACCAGUGAUGUUGGAAAGCCUUAUUGCUUAAGCUCAGGUAGGUCGCCAAGAAAAGA [whbob_Ex_Arginine_B_2t151] | 162 nM | 153 nM | 172 nM | 193 nM | 212 nM
11 | AAGACUUGCAUCGAUACCAGCCCAGUGAUGUUGGGCUGCUCUCCAUGGGUGCCAGACACGGGCCCUUGGCAGCGAGGUAAGGCCC [Soveri] | 129 nM | 110 nM | 113 nM | 109 nM | 106 nM
12 | AAGAGGUAGGCGGCCGCCACUUGUUGUGAACACAUACGAGCCAGUGAUGUUGGUAUUGUGUGCGGAAGGACCGGGCCUACCUGAA [Exclusion - Tryptophan B (Freestyle 21)] | 146 nM | 173 nM | 136 nM | 46 nM | 140 nM
13 | AAGCAGUCACUCGACGCCAUCGAAGAUGGGCGAGGACCGGUACGGCCGCCACUCGGAGUGAUGUUCUGAAGACUGCAAAAUAAAA [MatMod 7 - Jieux - Exclusion - Tryptophan A] | 235 nM | 166 nM | 153 nM | 115 nM | 160 nM
14 | AAGCAGUCCCUCGAAGCCAUCGAAGAUGGGCGAGGACCGGUACGGCCGCCACUCGGAGUGAUGUUCCGAAGACUGCAAAAUAAAA [MatMod 3 - Jieux - Exclusion - Tryptophan A] | 367 nM | 316 nM | 192 nM | 273 nM | 185 nM
15 | AAGCGUAAAAUGGCGGACAUACUGCUCCCACGAGGACCGGUACGGCCGCCACUCGAAUGCGGCAGUGAUGUUGCCGCCUUCGCGU [Zauslereed] | 74 nM | 68.3 nM | 62.8 nM | 69.9 nM | 62.5 nM
16 | AAGCGUGUGGCGGCCGCCACUAGUCUCCAGUGAUGUUGGAGAUAUCACGUAAGUGAUAUCCGACAUAGGACCGGGCCAUAUGGAA [Same State - Tryptophan B (Freestyle 22)] | 587 nM | 299 nM | 813 nM | 612 nM | 207 nM
17 | AAGGGCUAGGCGGCCGCCACUGGUCGUGUACACAUACAAACCAGUGAUGUUGGUAUUGUAUGCGACAGGACCGGGCCUAGCCGAA [Exclusion - Tryptophan B (Freestyle 28)] | 280 nM | 229 nM | 323 nM | 258 nM | 481 nM
18 | AAGGGCUAGGCGGCCGCCACUGGUCGUGUACACAUACAGACCAGUGAUGUUGGUAUUGUAUGCGACAGGACCGGGCCUAGCCCAA [Exclusion - Tryptophan B (Freestyle 29)] | 267 nM | 230 nM | 263 nM | 247 nM | 445 nM
19 | AAGGGCUAGGCGGCCGCCACUGGUCGUGUACACAUACGAACCAGUGAUGUUGGUAUUGUAUGCGACAGGACCGGGCCUAGCCGAA [Exclusion - Tryptophan B (Freestyle 27)] | 313 nM | 194 nM | 249 nM | 364 nM | 291 nM
20 | AAGGUGAUCCUCGAUACCAGCUCAAAAUGAGUGAUGUUCAUGAAAGCCUGGAAACAGGCGAGCCCUUGGCAGCGAGUUACAUCAA [KL-SSTheoB8] | 204 nM | 162 nM | 162 nM | 134 nM | 154 nM
21 | AAGUAGUCCCUUGUUGUCAUCGAAGAUGAACGAGGACCGGUACGGCCGCCACUCGGAGUGAUGUUCCGAUGGCUGCAAAAUAAAA [MatMod 22 - Jieux - Exclusion - Tryptophan A] | 103 nM | 88.9 nM | 92 nM | 91.4 nM | 101 nM

Row | Sequence | apparent KD of K4 kissing-loop reporter (input ligand: FMN 200 uM) | apparent KD of K4 kissing-loop reporter (input ligand: arginine 13.2 mM) | apparent KD of K4 kissing-loop reporter (input ligand: none) | apparent KD of K4 kissing-loop reporter [1] | apparent KD of K4 kissing-loop reporter [2]
22 | AAGUCAUAGGCAGGAUAUGCAUAGUAAUAAGGCAAUAUCUACGUAUAGAGUGAUGUUUUGUACCAGGCAGAAGGGCUACAUCAGU [FMN B Excl V9 (+4A/C)] | 635 nM | 407 nM | 514 nM | 554 nM | 424 nM
23 | AAGUCAUAGGCAGGAUAUGCUUAGUAAUAAGGCCAUAUAUACGUAUAGAGUGAUGUUUUGUACCAGGCAGAAGGGCUACAUCAGU [FMN B Excl V8 (+2A)] | 541 nM | 276 nM | 373 nM | 532 nM | 544 nM
24 | AAGUCAUAUAGAAGGAGCGUGUUUUAUAAUUUAUUUUCAUGAUCGAGUGAUGUUCGAUAUACACAGGUAGGUCGCUGUAUAAUAA [hbob_SS_Arginine_B_2t140] | 114 nM | 144 nM | 129 nM | 133 nM | 101 nM
25 | AAGUGAUGUUGUAGUGAUGUUGUGAUGUUGCAGGAUAUAUAGUGAUGUAGAAGGGUAAGGACUGUUUUUUUUUUUGAGUGAUGUU [ookooyzrmullin] | 94.2 nM | 41.4 nM | 70.5 nM | 56.8 nM | 73.3 nM
26 | AAGUGAUGUUGUAGUGAUGUUGUGAUGUUGCAGGAUAUAUAGUGAUGUAGAAGGGUAUGUACUUAUUUUUUAUUUGAGUUAUGUU [mmvmmullin] | 72.1 nM | 29.8 nM | 56.1 nM | 43.9 nM | 57.2 nM
27 | AAGUGAUGUUGUAGUGAUGUUGUGAUGUUGCAGGAUAUAUAGUGAUGUAGAAGGGUAUGUGCAGUGUUGUUGUUUGAGUGUUCAU [dttyumullin] | 95.4 nM | 41.8 nM | 73.7 nM | 74.7 nM | 68.4 nM
28 | AAGUGAUGUUGUAGUGAUGUUGUGAUGUUGCAGGAUAUAUAGUGAUGUAGAAGGGUAUGUGCAGUGUUGUUGUUUGAGUGUUGAU [twwumullin] | 90.3 nM | 43.2 nM | 74.7 nM | 68.6 nM | 68.7 nM
29 | AAGUGAUGUUGUAGUGAUGUUGUGAUGUUGCAGGAUAUAUAGUGAUGUAGAAGGGUAUGUGCAGUUUUCUUAUUUGAGUGUUGAU [zwzamullin] | 75.9 nM | 33.2 nM | 62.6 nM | 49.5 nM | 61.3 nM
30 | AAGUGUCAUUAGACACAGACUACAAUAAACUAGGAUAUGCUGAUAAGCAGAAGGAGUGAUGUUCCUUUCAAGUAGUCAAUUAAAU [FmnAX 20 Mat Inspired #SwitchBubble #StaticStem #K4Late] | 243 nM | 120 nM | 106 nM | 128 nM | 97.6 nM
31 | AAGUGUGUGGCGGCCGCCACUAGAAUCCAGUGAUGUUGGAGAUAUCAUGUAAAUGAUAUCCAACAUAGGACCGGGCCAUAUAGAA [Same State - Tryptophan B (Freestyle 10)] | 126 nM | 98 nM | 92.4 nM | 131 nM | 120 nM
32 | AAGUGUGUGGCGGCCGCCACUAGAAUCCAGUGAUGUUGGAGUUAUCAGAUAAAUGAUAAUCAACAUAGGACCGGGCCAUAUAGAA [Same State - Tryptophan B (Freestyle 5)] | 703 nM | 689 nM | 455 nM | 630 nM | 425 nM
33 | AAGUGUUCUAGUGAUACCAGACAUUUCUAUUUUAUCUUUAUAGCUAAGUGAUGUUUAGCAGUCCCUUGGCAGCACUAUUUCACUA [JR_SSTheophyB_Sub017] | 123 nM | 155 nM | 137 nM | 160 nM | 147 nM
34 | AAUAAAAUCACGGCCGCCACUGAUGCUAAUAUUAGCAGUGAUGUUGCUAUGUAGAUUUUAUUUAACAGGACCGGGUGAAUAUUUA [JR_SSTryptoB_Sub025] | 198 nM | 124 nM | 162 nM | 170 nM | 269 nM
35 | AAUAAAAUCACGGCCGCCACUGAUUUCCAUAUUAGGAGUGAUGUUCCUAUGACUAUAUAAUUUAACAGGACCGGGUGAAUAUUUA [JR_ExcTryptoB_Sub012] | 110 nM | 112 nM | 108 nM | 111 nM | 93.5 nM
36 | AAUAACUUGCAGUGAUGUUGCAAGAAAGCUCAGGAUAUCAGGAAACUGAGAAGGGAGCAUCCUGAGCAAACAUCACAACUUAGGA [[K1]-[K2]-[F1]-[F2]-[F]'-[K]'-[F]''_Design2] | 368 nM | 295 nM | 406 nM | 448 nM | 361 nM
37 | AAUAAGGUCGCCGAUACCAGCGCAGGCAGAGCAAAGCUCUGCCGGGUAGUGAUGUUACCGCGCCCUUGGCAGCGGUGGCACGACC [Omei KL Theo B SS C v1] | 579 nM | 435 nM | 340 nM | 398 nM | 275 nM
38 | AAUAAUAGUUGAGCAGGCGUGGUCUGAGAUACCAGUGAUUUCGAUCACCCUUGGCAGCUCAGCAUGAGUGAUGUUCAUGCUAUUC [Theo A Ex t10] | 147 nM | 114 nM | 134 nM | 145 nM | 131 nM
39 | AAUAAUGAUGUUUAGGAAAGUAAAAUGGAAGGAGCGUGCGAAAGCACAGGUAGGUCGCCAGUGAUGUUGGAACCUGAGCAUCAAA [#SwitchBubble 19 #K4Late] | 907 nM | 633 nM | 836 nM | 925 nM | 757 nM
40 | AAUACGAAGCAGUGAUGUUGCUUAUGAGAAGGAGCGCACGAAAGUGCAGGUAGGUCGCUCAGCCAUGUGGACGAAAACGUCCACA [whbob_SS_Arginine_A_sa109] | 83.3 nM | 102 nM | 89.2 nM | 102 nM | 80.5 nM
41 | AAUACUAUCAGAAGGAGCGUGGAAUAUUCAUCUGUAUCUAAUACGAGUGAUGUUCGUAAUUCACAGGUAGGUCGCUGAUCAAUAA [whbob_Ex_Arginine_B_2th156] | 246 nM | 249 nM | 267 nM | 269 nM | 213 nM
